“And” between values parts separate entries of the source, which are not always exact repeats. Equal values may be shown once. “Also recorded” adds a separate entry of the source. Ends that are not written are not given here.
Key:
HIV = assay: Infection of HT-29 human colon cells through the GalCer receptor; assay type: cell-based
Experimental: The activity of MBPCs was evaluated on this alternative infection route as follows: HT-29 cells (5×10^5 cells) were incubated with MBPCs (5×10^-6 M) for 45 minutes and subsequently exposed to 100 TCID50 of HIV-1 (LAI), HIV-1 (NDK) or HIV-2 (ROD) for 1 hour at 37° C. The residual inoculum was inactivated by three successive trypsinations and infection was assessed by: i) direct measurement of HIV-1 p24^gag (for HIV-1 isolates) and RT activity (for HIV-1 and HIV-2 isolates) in the culture supernatants; ii) co-cultivation with human PBLs. The cells were treated with the MBPCs as follows: 1- none; 2- [GPGRAF]8 -MLC; 3- [GPGRAF]8 -MLCD; 4- [GPG(R)DAF]8 -MLC; 5- [GPGRAF]16 -MLC; 6- [[…]]4 -MLC; and 7- [[…]]4 -MLC, with all amino acids in L form unless noted otherwise. The results shown in FIG. 5A, which correspond to infection with HIV-1 (NDK), are representative of three separate experiments and the MBPC used is indicated by the number on the x-axis. The concentration of p24^gag (pg/ml) was measured during the co-culture experiment with PBLs (+++, >10 ng/ml 10 days post-infection; ++, >1 ng/ml 13 days post-infection; +, >1 ng/ml 16 days post-infection; -, no detectable p24^gag 1 month post-infection). Similar results were obtained with HIV-1 (LAI) and HIV-2 (ROD).

CEM or C8166 cells = details: concentrations of 10^-7 to 10^-4 M; cultured continuously (15 days)
Experimental: An MTT assay, a colorimetric cell viability assay using 3-[4,5-Dimethylthiazol-2-yl] 2,5-diphenyltetrazolium bromide, was used to assess the effect of MBPCs on cell viability. CEM or C8166 cells (5×10^4) were cultured continuously (15 days) in the presence of various concentrations of MBPCs in the wells of 96-well microtiter plates in 200 μl final volume of RPMI 1640 medium supplemented with 5% fetal calf serum, 1% glutamine, 1% streptomycin-penicillin (available from Gibco of Irvine, Scotland) in a humidified atmosphere with 5% CO2. Every 3 to 4 days, an MTT assay was performed on 100 μl of cells suspension and MBPC were added to cell culture and the volume completed to 200 μl.

New Zealand rabbits = assay: Immunogenicity in rabbits (serum ELISA for anti MBPC.3 antibodies); assay type: in vivo, rabbit
Experimental: […] This procedure was repeated subcutaneously with incomplete Freud's adjuvant on days 30, 60, 90 and 120. Sera were tested by ELISA, looking for specific anti MBPC.3 antibodies. Data presented here is from the last serum samples (120+7 days).
[…] After saturation with 400 μL of casein (5 g/100 ml), different serum dilutions were added for 2 hours at 37° C. The controls were sera from non-immunized rabbits and mice. After rinsing (5×), 50 μl of 1:5000 of peroxidase-labeled swine anti-rabbit IgG or anti-mouse IgG (Dakopatts, Copenhagen, Denmark) were added for 1 hour at 37° C. After further rinsing (5×), 100 μl of ortho-phenylenediamine were added for 30 min in the dark at room temperature. The reaction was stopped by adding 50 μl of 4N sulfuric acid, and optical density (OD) ratios were determined at 492/620 nm.

8E5 cells = assay: Toxicity in the cell fusion test (MTT assay or trypan blue exclusion); assay type: cell-based; details: 5 × 10^-5 M; listed as [RKSIHIGPGRAFYT]4 -MLC

(GPGRAF)8 -(K)4 -(K)2 -K-βA-OH [MBPC.3]
block of the infectivity of HIV on human colon cells (HIV): completely block
toxicity to cells (MTT assay) (CEM or C8166 cells): not toxic
optical density (OD) ratio 492/620 nm (×10^3) (New Zealand rabbits; plate 1, rabbit serum 10^-2, coat 0.5 μg MBPC.3/ml): 968 and 981
optical density (OD) ratio 492/620 nm (×10^3) (New Zealand rabbits; plate 1, rabbit serum 10^-2, coat 1 μg MBPC.3/ml): 1280 and 1267
optical density (OD) ratio 492/620 nm (×10^3) (New Zealand rabbits; plate 1, rabbit serum 10^-2, coat 5 μg MBPC.3/ml): 2000
optical density (OD) ratio 492/620 nm (×10^3) (New Zealand rabbits; plate 1, rabbit serum 10^-2, coat 10 μg MBPC.3/ml): 2000
optical density (OD) ratio 492/620 nm (×10^3) (New Zealand rabbits; plate 1, rabbit serum 10^-3, coat 0.5 μg MBPC.3/ml): 318 and 296
optical density (OD) ratio 492/620 nm (×10^3) (New Zealand rabbits; plate 1, rabbit serum 10^-3, coat 1 μg MBPC.3/ml): 346 and 349
optical density (OD) ratio 492/620 nm (×10^3) (New Zealand rabbits; plate 1, rabbit serum 10^-3, coat 5 μg MBPC.3/ml): 2000
optical density (OD) ratio 492/620 nm (×10^3) (New Zealand rabbits; plate 1, rabbit serum 10^-3, coat 10 μg MBPC.3/ml): 2000
optical density (OD) ratio 492/620 nm (×10^3) (New Zealand rabbits; plate 1, rabbit serum 10^-4, coat 0.5 μg MBPC.3/ml): 145 and 140
optical density (OD) ratio 492/620 nm (×10^3) (New Zealand rabbits; plate 1, rabbit serum 10^-4, coat 1 μg MBPC.3/ml): 182 and 193
optical density (OD) ratio 492/620 nm (×10^3) (New Zealand rabbits; plate 1, rabbit serum 10^-4, coat 5 μg MBPC.3/ml): 796 and 809
optical density (OD) ratio 492/620 nm (×10^3) (New Zealand rabbits; plate 1, rabbit serum 10^-4, coat 10 μg MBPC.3/ml): 924 and 823
optical density (OD) ratio 492/620 nm (×10^3) (New Zealand rabbits; plate 2, rabbit serum 10^-2, coat 5 μg MBPC.3/ml): 2000
optical density (OD) ratio 492/620 nm (×10^3) (New Zealand rabbits; plate 2, rabbit serum 10^-2, coat 10 μg MBPC.3/ml): 2000
optical density (OD) ratio 492/620 nm (×10^3) (New Zealand rabbits; plate 2, rabbit serum 10^-3, coat 0.5 μg MBPC.3/ml): 197 and 181
optical density (OD) ratio 492/620 nm (×10^3) (New Zealand rabbits; plate 2, rabbit serum 10^-3, coat 5 μg MBPC.3/ml): 2000
optical density (OD) ratio 492/620 nm (×10^3) (New Zealand rabbits; plate 2, rabbit serum 10^-3, coat 10 μg MBPC.3/ml): 2000
optical density (OD) ratio 492/620 nm (×10^3) (New Zealand rabbits; plate 2, rabbit serum 10^-4, coat 0.5 μg MBPC.3/ml): 80 and 74
optical density (OD) ratio 492/620 nm (×10^3) (New Zealand rabbits; plate 2, rabbit serum 10^-4, coat 1 μg MBPC.3/ml): 113 and 84
optical density (OD) ratio 492/620 nm (×10^3) (New Zealand rabbits; plate 2, rabbit serum 10^-4, coat 5 μg MBPC.3/ml): 678 and 626
optical density (OD) ratio 492/620 nm (×10^3) (New Zealand rabbits; plate 2, rabbit serum 10^-4, coat 10 μg MBPC.3/ml): 734 and 689
optical density (OD) ratio 492/620 nm (×10^3) (New Zealand rabbits; plate 3, rabbit serum 10^-2, coat 0.5 μg MBPC.3/ml): 416 and 287
optical density (OD) ratio 492/620 nm (×10^3) (New Zealand rabbits; plate 3, rabbit serum 10^-2, coat 1 μg MBPC.3/ml): 402 and 401
optical density (OD) ratio 492/620 nm (×10^3) (New Zealand rabbits; plate 3, rabbit serum 10^-2, coat 5 μg MBPC.3/ml): 857 and 868
optical density (OD) ratio 492/620 nm (×10^3) (New Zealand rabbits; plate 3, rabbit serum 10^-2, coat 10 μg MBPC.3/ml): 818 and 953
optical density (OD) ratio 492/620 nm (×10^3) (New Zealand rabbits; plate 3, rabbit serum 10^-3, coat 0.5 μg MBPC.3/ml): 148 and 155
optical density (OD) ratio 492/620 nm (×10^3) (New Zealand rabbits; plate 3, rabbit serum 10^-3, coat 1 μg MBPC.3/ml): 168 and 150
optical density (OD) ratio 492/620 nm (×10^3) (New Zealand rabbits; plate 3, rabbit serum 10^-3, coat 5 μg MBPC.3/ml): 323 and 314
optical density (OD) ratio 492/620 nm (×10^3) (New Zealand rabbits; plate 3, rabbit serum 10^-3, coat 10 μg MBPC.3/ml): 342 and 328
optical density (OD) ratio 492/620 nm (×10^3) (New Zealand rabbits; plate 3, rabbit serum 10^-4, coat 0.5 μg MBPC.3/ml): 64 and 69
optical density (OD) ratio 492/620 nm (×10^3) (New Zealand rabbits; plate 3, rabbit serum 10^-4, coat 1 μg MBPC.3/ml): 72 and 89
optical density (OD) ratio 492/620 nm (×10^3) (New Zealand rabbits; plate 3, rabbit serum 10^-4, coat 5 μg MBPC.3/ml): 170 and 169
optical density (OD) ratio 492/620 nm (×10^3) (New Zealand rabbits; plate 3, rabbit serum 10^-4, coat 10 μg MBPC.3/ml): 191 and 184
optical density (OD) ratio 492/620 nm (×10^3) (New Zealand rabbits; plate 4, rabbit serum 10^-2, coat 0.5 μg MBPC.3/ml): 424 and 425
optical density (OD) ratio 492/620 nm (×10^3) (New Zealand rabbits; plate 4, rabbit serum 10^-2, coat 1 μg MBPC.3/ml): 419 and 447
optical density (OD) ratio 492/620 nm (×10^3) (New Zealand rabbits; plate 4, rabbit serum 10^-2, coat 5 μg MBPC.3/ml): 749 and 792
optical density (OD) ratio 492/620 nm (×10^3) (New Zealand rabbits; plate 4, rabbit serum 10^-2, coat 10 μg MBPC.3/ml): 849 and 843
optical density (OD) ratio 492/620 nm (×10^3) (New Zealand rabbits; plate 4, rabbit serum 10^-3, coat 0.5 μg MBPC.3/ml): 163 and 154
optical density (OD) ratio 492/620 nm (×10^3) (New Zealand rabbits; plate 4, rabbit serum 10^-3, coat 1 μg MBPC.3/ml): 221 and 151
optical density (OD) ratio 492/620 nm (×10^3) (New Zealand rabbits; plate 4, rabbit serum 10^-3, coat 5 μg MBPC.3/ml): 310 and 304
optical density (OD) ratio 492/620 nm (×10^3) (New Zealand rabbits; plate 4, rabbit serum 10^-3, coat 10 μg MBPC.3/ml): 332 and 314
titers of anti-GPGRAF antibodies (New Zealand rabbits; rabbits injected): did not produce significant titers

(RKSIHIGPGRAFYT)4 -(K)2 -K-βA-OH (also: four copies on lysine core (K)2-K-βA-OH) [MBPC.5, tetradecapeptide MBPC]
Toxicity (8E5 cells): Toxic; also recorded: induced some toxicity

— US5622933A, “Multiple branch peptide constructions for use against HIV” (priority 1993, dated 1997)
